The source of these data is article PMC9666628 (Nature Communications, 2022).

Broadly, the Kd is the concentration at which binding is half-saturated.

“And” between values parts separate entries of the source, which are not always exact repeats. Identical values can stand only once.

To fix the notation:
B1: H3K9me3 peptide, N-terminal FITC (peptide)
chain: ARTKQTARKSTGGKAPR
modifications: trimethyl-lysine at K9; fluorescein isothiocyanate (FITC) at the N-terminus

What all share (details): both partners purified
The target in test [1] is T1, Cbx7 Q9D chromodomain (tags removed) (human, UniProt O95931 7-66, Q9D).
T1 construct: chromodomain of human Cbx7 (Cbx7-chromo), UniProt O95931; source: E. coli BL21(DE3), purified (Ni-NTA; tags removed with TEV protease)
T1 sequence: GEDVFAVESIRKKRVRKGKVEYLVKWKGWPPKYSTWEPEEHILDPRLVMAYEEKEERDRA
As to the kind of experiment: fluorescence polarisation; 0.5 nM FITC-labelled peptide; chromodomains 200-0.2 µM (wild type) or 50 µM-50 nM (Cbx7.V1 and all Cbx.VDs); 30 min at 25 °C; 25 mM HEPES pH 7.5, 150 mM NaCl, 1 mM DTT, 0.01% TritonX-100; one-site total binding model. A general note: Fluorescence polarisation rises when a labelled molecule tumbles more slowly, as on binding a larger partner.

The target in test [2] is T2, Cbx7 K33E chromodomain (tags removed) (human, UniProt O95931 7-66, K33E).
T2 construct: chromodomain of human Cbx7 (Cbx7-chromo), UniProt O95931; source: E. coli BL21(DE3), purified (Ni-NTA; tags removed with TEV protease)
T2 sequence: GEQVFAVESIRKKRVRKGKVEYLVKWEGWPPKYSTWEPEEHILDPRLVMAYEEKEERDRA
The description is as above.

Test [3] has as its target T3, wild-type Cbx7 chromodomain (tags removed) (human, UniProt O95931 7-66).
T3 construct: chromodomain of human Cbx7 (Cbx7-chromo), UniProt O95931; also called Cbx7.wt; source: E. coli BL21(DE3), purified (Ni-NTA; tags removed with TEV protease)
T3 sequence: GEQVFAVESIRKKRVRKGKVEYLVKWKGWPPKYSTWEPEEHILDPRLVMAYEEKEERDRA
The test is described as above.

Test [4] addresses T4, Cbx7.V1 (tags removed, used for FP and ITC) (human, UniProt O95931 7-66, E8D (printed as the back-mutation D8E) | Q9D | V10I (printed as the …)).
T4 construct: chromodomain of human Cbx7 (Cbx7-chromo), UniProt O95931; source: E. coli BL21(DE3), purified (Ni-NTA; tags removed with TEV protease)
T4 sequence: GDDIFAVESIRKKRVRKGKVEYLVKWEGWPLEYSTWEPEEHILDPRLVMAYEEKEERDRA
Described as above.

The target in test [5] is T5, Cbx7.VD chromodomain, Q9D/K33E (tags removed) (human, UniProt O95931 7-66, Q9D | K33E).
T5 construct: chromodomain of human Cbx7 (Cbx7-chromo), UniProt O95931; source: E. coli BL21(DE3), purified (Ni-NTA; tags removed with TEV protease)
T5 sequence: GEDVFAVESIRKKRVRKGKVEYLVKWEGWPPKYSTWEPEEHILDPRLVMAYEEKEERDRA
The description is as above.

In test [6] the target is T6, wild-type Cbx8 chromodomain (tags removed) (human, UniProt Q9HC52 8-61).
T6 construct: chromodomain of human Cbx8; also called Cbx8.wt; source: E. coli BL21(DE3), purified (Ni-NTA; tags removed with TEV protease)
T6 sequence: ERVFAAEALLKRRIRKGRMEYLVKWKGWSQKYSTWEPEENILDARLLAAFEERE
The test is described as above.

Test [7] concerns the target T7, wild-type Cbx3 chromodomain (tags removed) (human, UniProt Q13185 29-86).
T7 construct: chromodomain of human Cbx3; also called Cbx3.wt; source: E. coli BL21(DE3), purified (Ni-NTA; tags removed with TEV protease)
Described as above.

For test [8], the target named is T8, wild-type Cbx2 chromodomain (tags removed) (human, UniProt Q14781 9-62).
T8 construct: chromodomain of human Cbx2; also called Cbx2.wt; source: E. coli BL21(DE3), purified (Ni-NTA; tags removed with TEV protease)
T8 sequence: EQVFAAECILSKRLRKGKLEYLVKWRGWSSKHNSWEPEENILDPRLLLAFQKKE
Described as above.

In test [9] the target is T9, wild-type Cbx5 chromodomain (tags removed) (human, UniProt P45973 18-75).
T9 construct: chromodomain of human Cbx5; also called Cbx5.wt; source: E. coli BL21(DE3), purified (Ni-NTA; tags removed with TEV protease)
T9 sequence (P45973 18-75, looked up): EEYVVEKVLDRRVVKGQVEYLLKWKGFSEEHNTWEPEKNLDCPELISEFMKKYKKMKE
Described as above.

Test [10] concerns the target T10, wild-type Cbx1 chromodomain (tags removed) (human, UniProt P83916 20-73).
T10 construct: chromodomain of human Cbx1; also called Cbx1.wt; source: E. coli BL21(DE3), purified (Ni-NTA; tags removed with TEV protease)
The test is described as above.

The target of test [11] is T11, Cbx7.V1 back-mutant E38K (human, UniProt O95931 7-66, E8D (printed as the back-mutation D8E) | Q9D | V10I (printed as the …)).
T11 construct: chromodomain of human Cbx7, variant V1 with residue 38 put back to the wild type; residues numbered on full-length Cbx7; Tags probably still on the protein in BLI (removal is told for FP and ITC only); source: E. coli BL21(DE3), purified (Ni-NTA)
T11 sequence: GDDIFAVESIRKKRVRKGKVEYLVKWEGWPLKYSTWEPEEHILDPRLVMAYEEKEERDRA
Nature of the test: BLI; biotinylated peptide on streptavidin biosensor tips, chromodomain in solution at 5 or 1 µM; 25 °C; 25 mM HEPES pH 7.0, 150 mM NaCl, 1 mg/ml BSA, 0.01% Tween-20; steady-state fit, Langmuir model; values of single replicates. In general terms: In BLI a coated tip is dipped into the sample, and binding shifts an interference pattern.

The target in test [12] is T12, Cbx7.V1 back-mutant L37P (human, UniProt O95931 7-66, E8D (printed as the back-mutation D8E) | Q9D | V10I (printed as the …)).
T12 construct: chromodomain of human Cbx7, variant V1 with residue 37 put back to the wild type; residues numbered on full-length Cbx7; Tags probably still on the protein in BLI (removal is told for FP and ITC only); source: E. coli BL21(DE3), purified (Ni-NTA)
T12 sequence: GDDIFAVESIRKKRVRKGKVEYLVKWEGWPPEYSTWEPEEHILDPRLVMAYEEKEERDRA
The description is as above.

Test [13] deals with T13, Cbx7.V1 chromodomain variant (protein used for BLI) (human, UniProt O95931 7-66, E8D (printed as the back-mutation D8E) | Q9D | V10I (printed as the …)).
T13 construct: chromodomain of human Cbx7 with the six substitutions of the phage-selected variant V1; residues numbered on full-length Cbx7; for BLI they were probably still on the protein; source: E. coli BL21(DE3), purified (Ni-NTA)
T13 sequence: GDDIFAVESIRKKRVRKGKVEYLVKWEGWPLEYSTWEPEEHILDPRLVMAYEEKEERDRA
The test is described as above.

Test [14] addresses T14, Cbx7.V1 back-mutant D8E (human, UniProt O95931 7-66, Q9D | V10I (printed as the back-mutation I10V) | K33E | P37L (printed as the …)).
T14 construct: chromodomain of human Cbx7, variant V1 with residue 8 put back to the wild type; residues numbered on full-length Cbx7; Tags probably still on the protein in BLI (removal is told for FP and ITC only); source: E. coli BL21(DE3), purified (Ni-NTA)
T14 sequence: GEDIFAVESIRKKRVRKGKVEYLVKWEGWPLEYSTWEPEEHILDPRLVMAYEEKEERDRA
The description is as above.

The target in test [15] is T15, Cbx7.V1 back-mutant I10V (human, UniProt O95931 7-66, E8D (printed as the back-mutation D8E) | Q9D | K33E | P37L (printed as the …)).
T15 construct: chromodomain of human Cbx7, variant V1 with residue 10 put back to the wild type; residues numbered on full-length Cbx7; Tags probably still on the protein in BLI (removal is told for FP and ITC only); source: E. coli BL21(DE3), purified (Ni-NTA)
T15 sequence: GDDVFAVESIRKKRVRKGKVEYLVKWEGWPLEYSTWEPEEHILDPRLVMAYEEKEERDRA
The test is described as above.

In test [16] the target is T16, Cbx7.V1 back-mutant D9Q (human, UniProt O95931 7-66, E8D (printed as the back-mutation D8E) | V10I (printed as the back-mutation …)).
T16 construct: chromodomain of human Cbx7, variant V1 with residue 9 put back to the wild type; residues numbered on full-length Cbx7; Tags probably still on the protein in BLI (removal is told for FP and ITC only); source: E. coli BL21(DE3), purified (Ni-NTA)
T16 sequence: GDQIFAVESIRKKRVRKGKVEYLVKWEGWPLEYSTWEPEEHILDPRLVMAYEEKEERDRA
The test is described as above.

The target of test [17] is B1. Nature of the test: fluorescence polarisation; 0.5 nM FITC-labelled peptide; chromodomains 200-0.2 µM (wild type) or 50 µM-50 nM (Cbx7.V1 and all Cbx.VDs); 30 min at 25 °C; 25 mM HEPES pH 7.5, 150 mM NaCl, 1 mM DTT, 0.01% TritonX-100; one-site total binding model.

T7 sequence (Q13185 29-86, looked up): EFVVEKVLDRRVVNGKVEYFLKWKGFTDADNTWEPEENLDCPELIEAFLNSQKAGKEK
T10 sequence (P83916 20-73, looked up): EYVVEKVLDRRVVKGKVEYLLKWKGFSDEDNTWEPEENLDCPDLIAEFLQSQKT

Take B1: the dissociation constant Kd in test [1] is 10 µM; in test [2], 20 µM; in [3] it was 30 µM; in test [4], 7 µM; in test [5], 8 µM; in [6] it was over 200 µM. Further, the Kd is 2 µM in test [7], over 200 µM in [8], 5 µM in [9] and 0.5 µM in test [10].

B2: H3K27me3 peptide, biotinylated (peptide)
chain: KQLATKAARKSAPATGGVK
modifications: trimethyl-lysine at K27; biotin followed by an aminohexanoic acid linker at the N-terminus
Turning to B2, the Kd in test [11] is 1.5 µM and 1.7 µM; in test [12] it was 2.8 µM and 2.2 µM; in [13] it was 2 µM and 2.2 µM; in [14] it was 1.9 µM and 2.2 µM; in [15], 2.8 µM and 1.6 µM; in test [16], 1.6 µM and 2.7 µM.

B3: Cbx6.VD chromodomain, Asp9/Glu33 (tags removed) (domain or fragment)
chain: GEDVFAAESIIKRRIRKGRIEYLVKWEGWAIKYSTWEPEENILDSRLIAAFEQKERERELYGP
In test [17], B3 displayed a Kd of over 50 µM.

Turning to KQLATKAARKSAPATGGVK (trimethyl-lysine at K27; fluorescein isothiocyanate (FITC) at the N-terminus) [H3K27me3 peptide, N-terminal FITC], the Kd is 100 µM in test [1]; 20 µM in test [2]; 110 µM in test [3]; 4 µM in [4]; 5 µM in test [5]; over 200 µM in test [6]. For the same molecule, binding in test [8] was put at a Kd of 100 µM.
